# US20230002480A1
# Assays:
# Test in all cases: cell-based or functional assay
# [1] = target: HIV-1 Env of pseudovirus 1394C9G1(Rev-) (HIV-1)
# [2] = target: HIV-1 Env of pseudovirus 191955_A11 (HIV-1)
# [3] = target: HIV-1 Env of pseudovirus 211-9 (HIV-1)
# [4] = target: HIV-1 Env of pseudovirus 246F C1G (HIV-1)
# [5] = target: HIV-1 Env of pseudovirus 3103.v3.c10 (HIV-1)
# [6] = target: HIV-1 Env of pseudovirus 3817.v2.c59 (HIV-1)
# [7] = target: HIV-1 Env of pseudovirus 620345.c01 (HIV-1)
# [8] = target: HIV-1 Env of pseudovirus 6240_08_TA5_4622 (HIV-1)
# [9] = target: HIV-1 Env of pseudovirus 6244_13_B5_4576 (HIV-1)
# [10] = target: HIV-1 Env of pseudovirus 6480.v4.c25 (HIV-1)
# [11] = target: HIV-1 Env of pseudovirus 6535.3 (HIV-1)
# [12] = target: HIV-1 Env of pseudovirus 9004SS_A3_4 (HIV-1)
# [13] = target: HIV-1 Env of pseudovirus BF1266.431a (HIV-1)
# [14] = target: HIV-1 Env of pseudovirus BJOX025000.01.1 (HIV-1)
# [15] = target: HIV-1 Env of pseudovirus C2101.c01 (HIV-1)
# [16] = target: HIV-1 Env of pseudovirus C3347.c11 (HIV-1)
# [17] = target: HIV-1 Env of pseudovirus CAAN5342.A2 (HIV-1)
# [18] = target: HIV-1 Env of pseudovirus CAP210.2.00.E8 (HIV-1)
# [19] = target: HIV-1 Env of pseudovirus CAP45.2.00.G3 (HIV-1)
# [20] = target: HIV-1 Env of pseudovirus CNE30 (HIV-1)
# [21] = target: HIV-1 Env of pseudovirus CNE58 (HIV-1)
# [22] = target: HIV-1 Env of pseudovirus Ce0393_C3 (HIV-1)
# [23] = target: HIV-1 Env of pseudovirus Ce1172_H1 (HIV-1)
# [24] = target: HIV-1 Env of pseudovirus HIV-001428-2.42 (HIV-1)
# [25] = target: HIV-1 Env of pseudovirus HIV-16055-2.3 (HIV-1)
# [26] = target: HIV-1 Env of pseudovirus Q769.d22 (HIV-1)
# [27] = target: HIV-1 Env of pseudovirus RHPA4259.7 (HIV-1)
# [28] = target: HIV-1 Env of pseudovirus SC422661.8 (HIV-1)
# [29] = target: HIV-1 Env of pseudovirus T255-34 (HIV-1)
# [30] = target: HIV-1 Env of pseudovirus THRO4156.18 (HIV-1)
# [31] = target: HIV-1 Env of pseudovirus WITO4160.33 (HIV-1)
# [32] = target: HIV-1 Env of pseudovirus X1193_c1 (HIV-1)
# [33] = target: HIV-1 Env of pseudovirus X2131_C1_B5 (HIV-1)
# [34] = target: HIV-1 Env of pseudovirus ZM109F.PB4 (HIV-1)
substance,measurement,setting,value
8ANC195 (antibody),neutralization IC50,[1],> 50 µg/mL
same,neutralization IC80,[1],> 50 µg/mL
same,neutralization IC50,[2],> 50 µg/mL
same,neutralization IC80,[2],> 50 µg/mL
same,"IC50, titer in TZM.bl cells",[3],1.34 µg/mL
same,"IC80, titer in TZM.bl cells",[3],8.43 µg/mL
same,neutralization IC50,[4],12.8 µg/mL
same,neutralization IC80,[4],> 50 µg/mL
same,"IC50, titer in TZM.bl cells",[5],48.1 µg/mL
same,"IC80, titer in TZM.bl cells",[5],> 50 µg/mL
same,"IC50, titer in TZM.bl cells",[6],1 µg/mL
same,"IC80, titer in TZM.bl cells",[6],5.3 µg/mL
same,"IC50, titer in TZM.bl cells",[7],> 50 µg/mL
same,"IC80, titer in TZM.bl cells",[7],> 50 µg/mL
same,neutralization IC50,[8],> 50 µg/mL
same,neutralization IC80,[8],> 50 µg/mL
same,neutralization IC50,[9],> 50 µg/mL
same,neutralization IC80,[9],> 50 µg/mL
same,"IC50, titer in TZM.bl cells",[10],0.16 µg/mL
same,"IC80, titer in TZM.bl cells",[10],1.13 µg/mL
same,neutralization IC50,[11],0.2 µg/mL
same,neutralization IC80,[11],0.91 µg/mL
same,neutralization IC50,[12],0.17 µg/mL
same,neutralization IC80,[12],0.81 µg/mL
same,neutralization IC50,[13],> 50 µg/mL
same,neutralization IC80,[13],> 50 µg/mL
same,"IC50, titer in TZM.bl cells",[14],4.96 µg/mL
same,"IC80, titer in TZM.bl cells",[14],> 50 µg/mL
same,"IC50, titer in TZM.bl cells",[15],0.48 µg/mL
same,"IC80, titer in TZM.bl cells",[15],3.54 µg/mL
same,"IC50, titer in TZM.bl cells",[16],> 50 µg/mL
same,"IC80, titer in TZM.bl cells",[16],> 50 µg/mL
same,neutralization IC50,[17],> 50 µg/mL
same,neutralization IC80,[17],> 50 µg/mL
same,neutralization IC50,[18],> 50 µg/mL
same,neutralization IC80,[18],> 50 µg/mL
same,neutralization IC50,[19],28.3 µg/mL
same,neutralization IC80,[19],> 50 µg/mL
same,neutralization IC50,[20],7.52 µg/mL
same,neutralization IC80,[20],40.5 µg/mL
same,neutralization IC50,[21],> 50 µg/mL
same,neutralization IC80,[21],> 50 µg/mL
same,neutralization IC50,[22],6.77 µg/mL
same,neutralization IC80,[22],> 50 µg/mL
same,neutralization IC50,[23],42.3 µg/mL
same,neutralization IC80,[23],> 50 µg/mL
same,neutralization IC50,[24],> 50 µg/mL
same,neutralization IC80,[24],> 50 µg/mL
same,neutralization IC50,[25],15.3 µg/mL
same,neutralization IC80,[25],> 50 µg/mL
same,neutralization IC50,[26],0.26 µg/mL
same,neutralization IC80,[26],1.2 µg/mL
same,neutralization IC50,[27],0.34 µg/mL
same,neutralization IC80,[27],1.56 µg/mL
same,neutralization IC50,[28],0.29 µg/mL
same,neutralization IC80,[28],4.67 µg/mL
same,"IC50, titer in TZM.bl cells",[29],0.54 µg/mL
same,"IC80, titer in TZM.bl cells",[29],8.09 µg/mL
same,neutralization IC50,[30],> 50 µg/mL
same,neutralization IC80,[30],> 50 µg/mL
same,neutralization IC50,[31],> 50 µg/mL
same,neutralization IC80,[31],> 50 µg/mL
same,"IC50, titer in TZM.bl cells",[32],0.27 µg/mL
same,"IC80, titer in TZM.bl cells",[32],1.66 µg/mL
same,"IC50, titer in TZM.bl cells",[33],3.47 µg/mL
same,"IC80, titer in TZM.bl cells",[33],> 50 µg/mL
same,neutralization IC50,[34],> 30 µg/mL
same,neutralization IC80,[34],> 30 µg/mL
